Measured values as given in article PMC3876041, “Screening of Peptide Ligands for Pyrroloquinoline Quinone Glucose Dehydrogenase Using Antagonistic Template-Based Biopanning” (International Journal of Molecular Sciences, 2013).

Legend:
[1] = Kinetic parameters of GDH-B and mutant enzymes; assay type: biochemical
Procedure: (§1) GDH-B activity was measured using 0.06 mM 2,6-dichlorophenolindophenol (DCIP) and 0.6 mM phenazine methosulfate (PMS) following 30 min pre-incubation in 10 mM MOPS–NaOH buffer (pH 7.0) containing 1 μM PQQ and 1 mM CaCl2 at room temperature (25 °C). The enzyme activity was determined by measuring the decrease in absorbance of DCIP at 600 nm. For the inhibition assay, the residual activity of 0.7 nM GDH-B for 50 mM D-glucose was measured following 1 h incubation with various concentrations of each peptide. GDH-B activity in the absence of peptide was defined as 100%.

[2] = Substrate specificity of GDH-B mutants; assay type: biochemical; details: galactose 20 mM; activity against glucose = 100%
Procedure: Figure 3. Substrate specificity of wild-type GDH-B (W.T.), DEE-His, and HI against glucose, lactose, maltose, 3-O-methylglucose (3-O-m glucose), allose, galactose, or 2-deoxyglucose (2DG). Each substrate concentration was 20 mM. The enzymatic activity of each enzyme against glucose was set as 100%.
as §1

[3] = DCIP/PMS assay, 10 mM MOPS–NaOH pH 7.0, 1 μM PQQ, 1 mM CaCl2, 25 °C

B1: DEE-His: GDH-B mutant V453D-Q454E-K455E, 6-His tag fused to the C-terminal, antagonistic template (protein)
chain: DVPLTPSQFAKAKSENFDKKVILSNLNKPHALLWGPDNQIWLTERATGKILRVNPESGSVKTVFQVPEIVNDADGQNGLLGFAFHPDFKNNPYIYISGTFKNPKSTDKELPNQTIIRRYTYNKSTDTLEKPVDLLAGLPSSKDHQSGRLVIGPDQKIYYTIGDQGRNQLAYLFLPNQAQHTPTQQELNGKDYHTYMGKVLRLNLDGSIPKDNPSFNGVVSHIYTLGHRNPQGLAFTPNGKLLQSEQGPNSDDEINLIVKGGNYGWPNVAGYKDDSGYAYANYSAAANKSIKDLAQNGVKVAAGVPVTKESEWTGKNFVPPLKTLYTVQDTYNYNDPTCGEMTYICWPTVAPSSAYVYKGGKKAITGWENTLLVPSLKRGVIFRIKLDPTYSTTYDDAVPMFKSNNRYRDVIASPDGNVLYVLTDTAGNDEEDDGSVTNTLENPGSLIKFTYKAK
modifications: left off: His6, C-terminal, kept
notes: GDH-B mutant V453D-Q454E-K455E, 6-His tag fused to the C-terminal, antagonistic template
- Km [1, 3]: 91 mM
- Vmax [1, 3]: 28 U/mg protein
- Km compared to wild-type enzyme (in words) ([1]; compared to the wild-type enzyme): increased Km value
- GDH activity with PQQ (in words) ([1]; refolded DEE-His, with PQQ): showed GDH activity with PQQ
- relative activity toward galactose (in words) [2]: higher relative activity toward galactose
